Test system: K4 kissing-loop RNA reporter
Experiment: apparent KD of K4 kissing-loop reporter; higher = weaker reporter binding
Conditions: Eterna round: R107
Experimental: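 RNA-MaP round R107: designed RNA switches with theophylline, tryptophan, arginine or FMN aptamers are transcribed on-chip within common flanks. They are titrated with a labelled K4 kissing-loop RNA reporter in RNA-MaP buffer (100 mM Tris pH 7.5, 80 mM KCl, 4 mM MgCl2), without ligand or with the indicated ligand. Median apparent KD per design.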

[1] = input ligand: theophylline 20 uM
[2] = input ligand: tryptophan 2.4 mM
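Further: bound reporter read as fluorescence of individual clusters on recovered sequencing chips by microscopy, with normalized cluster intensities fitted with a binding model.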

| Sequence | apparent KD of K4 kissing-loop reporter (input ligand: FMN 200 uM) [nM] | apparent KD of K4 kissing-loop reporter (input ligand: arginine 13.2 mM) [nM] | apparent KD of K4 kissing-loop reporter (input ligand: none) [nM] | apparent KD of K4 kissing-loop reporter [1] [nM] | apparent KD of K4 kissing-loop reporter [2] [nM] |
| --- | --- | --- | --- | --- | --- |
| GCGCGUCAUGUCAGCGGUGACUCUGUCGAUACCAGCGCCGCAAGGCGCCCUUGGCAGCGACGCGCUGGAGUGAUGUUCCAGCGUG [#2 Exclusion - Theophylline A Attempt #13 (HarryS)] | 157 | 142 | 160 | 150 | 145 |
| GCGGACAUUCGCAGUGAUGUUGCGACGGAAGGAGCGGAUGAAAAUCCAGGUAGGUCGCCGACAAAAUUAAUUUUAAUGUGUUCGC [#03 K4 Arginine A Same State] | 358 | 325 | 437 | 316 | 324 |
| GCGUGGCAGGCGGCCGCCACUCGGACGAGUCACAGUGAUGUUGUGGUUUGCCAGUCGUCUUCAUCGAGGACCGGGUUUGUUGCGC [Exclusion Tryptophan B GF 18] | 206 | 169 | 212 | 159 | 171 |
| GCUAGCAAUGCAGGAUAUUAAAACGAGUGAUGUUCGGUACCGAGGAUGGGAAACCAUCCUCGGUAAUAAGAAGGGCAUUGCUAGC | 210 | 182 | 194 | 211 | 172 |
| GCUAUAGUGUUAGAUACCAGUAUCCUGCAAAGCCAUCAAAUGCAGUGAUGUUGCAUAAACUACCCUUGGCAGCUAAUUGGGCUCU [theeternabot_exclusion_KL_Theo_B_49] | 226 | 201 | 213 | 213 | 187 |
| GCUAUGGUAGGAAGGAGCGCUUAAUUACUAAUAAGAGUGAUGUUCGAUAGUAGGUAUUUGUAGCAGGUAGGUCGCCUACUAUAGC [KL-Arg B24] | 264 | 174 | 444 | 230 | 215 |
| GCUAUGGUAGGAAGGAGCGCUUGCUCGGUCAUAUGAGUGAUGUUCGAGACCGAGCAUUUAUAGCAGGUAGGUCGCCUACUAUAGC [Arginine B K4 8] | 253 | 223 | 192 | 200 | 198 |
| GCUAUGGUUGGAAGGAGCGUUGAAUUGUUGGUAAGAGUGAUGUUCGAUAGUGGAUAGUUGUAGCAGGUAGGUCGCCAACUAUAGC [KL-Arg B27] | 377 | 367 | 532 | 517 | 395 |
| GCUCAUCCGGCAGGAUAUAGGCAGGUAGAGUGAUGUUCGAACUGCAGUUAUCCAUCCUUCUACCUACUAGAAGGGCCGGAUGAGC | 376 | 214 | 209 | 188 | 292 |
| GCUGUCCAGUUCGAUACCAGAGUUAUCGCACUGUAGUGAUAAAGUGAUGUUUUAUCAGUCCUCCCUUGGCAGCGAUGCCCGGCUG [theeternabot_exclusion_KL_Theo_B_25] | 164 | 151 | 166 | 165 | 154 |
| GGACGCCGGUCGGCCGCCACUCACAGCAGUGAUGUUGCUGAGAAUGUAGCGGAGUGAUGUUCCGAGAGGACCGGGACUGCAGUUU [Same State Tryptophan B GF 9] | 240 | 157 | 198 | 186 | 210 |
| GGAGAGGUCUUGUUUGGAUGUGUUUAAUGGCGAGGACCGGUACGGCCGCCACUCGGGUGAUGUUAGUGAUGUUGAUGUAGUGAUG [wzwmullin] | 103 | 76.1 | 93.4 | 149 | 89.5 |
| GGAGCAGGUGAAGGAUAUCCCGGGCCAGAGUGAUGUUCUGGAUCCCUUGCCGUUUCUAAACGGGUGGGAGAAGGUCACUGAUAAG [Bibimati] | 132 | 154 | 234 | 180 | 164 |
| GGAGGAGAAUAUGAUACCAGCAGAGAGAGAGAGGAAGUAUAGUGAUGUUAUAUGUGAGAAUGCCCUUGGCAGCAUAAGAAGAAGG [whbob_SS_Theo_B_sa87] | 140 | 147 | 156 | 170 | 132 |
| GGAGUUACCUGGGAUACCAGUCGGAGACCCAGAGCUCGGAGUGAUGUUCUGGGAUGUUUCGGCCCUUGGCAGCUCUGGGUCUCCC [#2 Exclusion - Theophylline B Attempt #8 (HarryS)] | 909 | 615 | 723 | 936 | 675 |
| GGAUAGGACAGAGGAUAUCUCUGAGGCAAGAAAACUUGUCUCUAAAGAGAUGACUCAGUGAUGUUGGGAGAAGGCUGUCCUAUCG [FmnBX 10 - #SwitchBubble #StaticStem] | 202 | 139 | 141 | 167 | 125 |

| Sequence | apparent KD of K4 kissing-loop reporter (input ligand: FMN 200 uM) [nM] | apparent KD of K4 kissing-loop reporter (input ligand: arginine 13.2 mM) [nM] | apparent KD of K4 kissing-loop reporter (input ligand: none) [nM] | apparent KD of K4 kissing-loop reporter [1] [nM] | apparent KD of K4 kissing-loop reporter [2] [nM] |
| --- | --- | --- | --- | --- | --- |
| GGAUAGGACGGAGGAUAUGGGCUAGGCAAGAAUAACUUGUCUAGCAAAUCCAUGAGGAGUGAUGUUCCAGAAGGUUGUCCUAUCG [FmnBX 1 G10+U75] | 167 | 94.7 | 85.2 | 106 | 75.4 |
| GGAUAGGACGGAGGAUAUGGUAGUGAUGUUACCAAACUGGUUAAACAUGUCAGAAAACUGGCAUGACCAGAAGGCUGUCCUAUCG [FmnBX 27 G10] | 112 | 65.2 | 73 | 67.5 | 76.6 |
| GGAUAGGAUAGAGGAUAUGGAGAACACAAAAGUGACUUGUUGUGUUUAUCCAUAGGGAGUGAUGUUCCAGAAGGCUGUCCUAUCG [MatMod 24 - Jieux - Exclusion - FMN B] | 296 | 178 | 201 | 183 | 156 |
| GGAUAGGAUAGAGGAUAUGGCUUACGCAGAAAUAACUUGUUGUGUUUAUCCAUAGGGAGUGAUGUUCCAGAAGGCUGUCCUAUCG [MatMod 18 - Jieux - Exclusion - FMN B] | 732 | 204 | 266 | 240 | 183 |
| GGAUGCAUAGUAGAUACCAGCAAGCUCGGAUAGUGAUGUUGUUCGCAGUCAUUUCGGUAGUGCCCUUGGCAGCUAGACGCCCGAU [theeternabot_exclusion_KL_Theo_B_36] | 109 | 92.7 | 104 | 92.3 | 97.5 |
| GGCACGGUAACGCAACCGCCGUGCGCUUGGGAGGAUAUGUUUCGUGACAGAAGGCCCAGUGAUGUUGGGUCUGUUCAAAAGGACU [Ceenerus] | 355 | 124 | 105 | 122 | 88.7 |
| GGCAGUGAUGUUGCCAGUGGCAGAUGCGAAGGAGCGUGGUGAGACACAGGUAGGUCGCGCAUUGAAAUUGCUGUCACUAAAAUGC [#3] | 338 | 346 | 326 | 369 | 261 |
| GGCCGCAAGGCGAGCGCUCCCACUCCGGAAGGAGCGCCCGGAAGGGCAGGUAGGUCGCCGGAGUGAUGUUCCGGUGGAGGGCUCG [#2 Exclusion - Arginine A Attempt #18 (Inspired by Omei)] | 435 | 319 | 417 | 772 | 469 |
| GGGAAGGACGGAGGAUAUGCACUGAGGAGGAGAAUAUAGUGAUGUUAUAUAAGAGGAAGGAGCUGAGUAGAAGGCCGAGGAAAGG [whbob_SS_FMNB__2th207] | 147 | 87.9 | 134 | 92.4 | 129 |
| GGGAGUAGUGCGGCCGCCACUGAGAAAGAAGAAGAAUAUAGUGAUGUUAUAUAGGAAAGGAAGAAUAGGACCGGGCAUUAGAUUU [SSTRyptB.J] | 229 | 173 | 263 | 238 | 257 |
| GGGAGUAGUGCGGCCGCCACUGUGAAAGUAGAAGAAUAUAGUGAUGUUAUAUAGGAAUAAAAGAAUAGGACCGGGCAUUAGAUUU [SSTRyptB.V] | 190 | 215 | 212 | 249 | 168 |
| GGGCGCGGCGCGGCCGCCACUGCGCCUGGGUGCUCGCCGAGUGAUGUUCGUCGGCGGUUGGGUGGCAGGACCGGGUGCCGGCCCG [BDazzled - #17 SS Tryptophan B] | 1580 | 533 | 3280 | 2140 | 457 |
| GGGUGAGCGCGAAGGAGCGCCCUGACAGGUUGCUGCCGUGGGCAGUGAUGUUGCUCAGUCCGGCAGGUAGGUCGCGUGCUCACCC | 187 | 163 | 164 | 210 | 170 |
| GGUAGCAUGGCGGCCGCCACUAUCCUUCAUGGUUGACAUUAAGGAUAGCAUAGUGAUGUUAUGAAUAGGACCGGGCCAUGCUACC | 175 | 136 | 163 | 137 | 149 |
| GGUAGCAUGGCGGCCGCCACUUACACCACGGCCCUUCUAGUGAUGUUAGAGUGGAUUAUUCCGUUAAGGACCGGGCCAUGCUACC | 629 | 430 | 745 | 650 | 273 |
| GGUGACAACCAGAGGUGAUGUAUAGAAUCGCGAGGACCGGUACGGCCGCCACUCGUGAAGAGAAAGGAGUGAUGUUCCGUAAUGG [Kazoo C6] | 271 | 249 | 282 | 364 | 124 |

From the supplement of paper PMC9170038
